Laboratory results from patent publication US20190269784A1, “Selective Inhibitors of the Polo-Like Kinase 1 Polo-Box Domain” (UNIVERSITY OF SOUTH CAROLINA, priority 2018, published 2019).
Square brackets hold non-standard residues; d marks the D form. Ends that are not written are not given here. Peptide text beside a SMILES is read from it. * marks the point of attachment. Benzoyl(4-octyl) = CCCCCCCCc1ccc(C(=O)*)cc1; pT = C[C@@H](OP(=O)(O)O)[C@H](N)C(=O)O; X1 = CCCCCCCCCc1ccc(C(=O)*)cc1

Key:
[1] = test system: HeLa cells; assay: MTT cell viability assay, HeLa; format: cell-based; details: no delivery agent
Protocol: (§1) Accordingly, cell viability was measured using an MTT assay to determine the anti-proliferative activity for Compounds No. 15, 16, 17, and 18 with regard to three different cell types (HeLa, PC-3, and A549). The cells utilized were chosen due to reported synthetic lethal interactions with PLK1 inhibition

[2] = test system: PC-3 cells; assay: MTT cell viability assay, PC-3; format: cell-based; details: PC-3, PTEN deficient prostate cancer, no delivery agent
Protocol: as §1

[3] = test system: A549 cells; assay: MTT cell viability assay, A549; format: cell-based; details: A549, Kras mutant lung cancer, no delivery agent
Protocol: as §1

[4] = test system: RPE cells expressing PLK1 C67V mutant; format: cell-based; details: for sensitivity of RPE cells to FLIPs, in words: FIG. 8
[5] = test system: BubR1 phosphorylation in PC-3 cells; assay: Immunoblotting for BubR1 phosphorylation and pHH3 in PC-3 cells; format: cell-based; details: 5-30 μM, 23 hours
Protocol: To measure the PLK1 inhibitory activity of the FLIPs in cells, phosphorylation of the mitotic protein BubR1 was measured. PC-3 cells were serum starved for 72 h and released from the G1-S boundary. 16 h after released, cells were arrested at prometaphase by treatment with 100 ng/ml Colcemid or treated with 50 nM BI2536 PLK1 kinase inhibitor or 5-30 μM of Compound No. 18 for 23 hours. Cells were trypsinized and whole cell lysate was prepared. The obtained total cell lysate was subjected to immunoblotting with anti-BubR1 (top panel, FIG. 9), anti-β tubulin (middle panel, FIG. 9), and anti-pHH3 (bottom panel, FIG. 9).

[6] = target: polo-box domain (PBD) of polo-like kinase 1 (PLK1) (UniProt P53350); assay: fluorescence polarization competition on PLK1 PBD
Chain of polo-box domain (PBD) of polo-like kinase 1 (PLK1) (UniProt P53350) (P53350 367-603 limits assumed): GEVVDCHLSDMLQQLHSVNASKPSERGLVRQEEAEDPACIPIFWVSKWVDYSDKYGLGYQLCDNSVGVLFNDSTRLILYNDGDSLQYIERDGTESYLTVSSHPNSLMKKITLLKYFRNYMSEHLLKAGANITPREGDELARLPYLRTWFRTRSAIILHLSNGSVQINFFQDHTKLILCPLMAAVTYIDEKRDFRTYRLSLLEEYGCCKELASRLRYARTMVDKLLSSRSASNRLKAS

[7] = target: polo-box domain (PBD) of polo-like kinase 3 (PLK3) (UniProt Q9H4B4); assay: fluorescence polarization competition on PLK3 PBD
[8] = target: polo-box domain (PBD) of polo-like kinase 1 (PLK1) (UniProt P53350); assay: from FP IC50s, (IC50 PLK3 PBD/IC50 PLK1 PBD)x5; PLK1 PBD against PLK3 PBD
[9] = target: PLK1 PBD (Homo sapiens, UniProt P53350); assay: Fluorescence polarization competitive binding assay, PLK1 PBD
Chain of PLK1 PBD (P53350 367-603 limits assumed): as above
Protocol: (§2) According to the assay, binding of a fluorescent tracer peptide to a protein increased polarization of the emitted fluorescence. […] The ability of test molecules to bind to the PBD was quantitated by a reduction in mP values that occurred as the tracer was displaced from the PBD, and plotted to calculate as an IC50 value.
(§3) The affinities of the peptides for PLK1 and PLK3 were measured by plotting the loss of polarization against increasing concentration of competitor peptide through use of an optimized assay and selectivity determination.

[10] = target: T1, PLK3 PBD (Homo sapiens, UniProt Q9H4B4); assay: Fluorescence polarization competitive binding assay, PLK3 PBD
T1 construct: A similar assay format was developed for the PLK3 PBD
T1 sequence (Q9H4B4 335-646 limits assumed): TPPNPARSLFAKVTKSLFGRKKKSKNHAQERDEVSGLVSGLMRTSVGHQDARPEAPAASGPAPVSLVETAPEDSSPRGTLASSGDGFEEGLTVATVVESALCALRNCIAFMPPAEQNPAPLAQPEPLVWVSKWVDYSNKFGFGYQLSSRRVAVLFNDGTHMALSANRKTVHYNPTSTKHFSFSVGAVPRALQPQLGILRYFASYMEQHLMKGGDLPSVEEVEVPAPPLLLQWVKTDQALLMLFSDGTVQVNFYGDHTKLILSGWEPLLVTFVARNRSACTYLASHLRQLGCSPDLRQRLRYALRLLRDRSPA
Protocol: (§4) The binding of fluorescein-labelled tracer peptides used for both assays was determined to see if there was a difference in affinity for their respective PBD. A titration curve for each tracer/PLK PBD complex was generated to determine Kd values for each and therefore compare the relative binding affinities.
as §3

[11] = test system: PC3 cells; assay: Cell cycle analysis of serum-starved PC3 cells; format: cell-based; details: 200 μM, 24 hours, PC3 synchronized by serum starvation; mock 19.9%
Protocol: To examine the cellular phenotype of PLK1 inhibition through the Polo-box domain, PC3 cells synchronized in G1 through serum starvation were treated with Compound No. 16. Cells were synchronized by serum starvation for 24 hours prior to treatment. Untreated cells were serum starved and then released into drug-free media for 24 hours (left panel) as control. Sample cells were serum starved and then treated with 200 μM Compound No. 16 for 24 hours (right panel).

[12] = test system: RPE cells expressing wild-type PLK1; format: cell-based; details: read-out: growth inhibition, RPE cells expressing wild-type PLK1
[13] = target: polo-like kinase 1 (PLK1), wild type, in cells (UniProt P53350 2-603, limits assumed); assay: cell-based or functional assay
Chain of polo-like kinase 1 (PLK1), wild type, in cells (P53350 2-603 limits assumed): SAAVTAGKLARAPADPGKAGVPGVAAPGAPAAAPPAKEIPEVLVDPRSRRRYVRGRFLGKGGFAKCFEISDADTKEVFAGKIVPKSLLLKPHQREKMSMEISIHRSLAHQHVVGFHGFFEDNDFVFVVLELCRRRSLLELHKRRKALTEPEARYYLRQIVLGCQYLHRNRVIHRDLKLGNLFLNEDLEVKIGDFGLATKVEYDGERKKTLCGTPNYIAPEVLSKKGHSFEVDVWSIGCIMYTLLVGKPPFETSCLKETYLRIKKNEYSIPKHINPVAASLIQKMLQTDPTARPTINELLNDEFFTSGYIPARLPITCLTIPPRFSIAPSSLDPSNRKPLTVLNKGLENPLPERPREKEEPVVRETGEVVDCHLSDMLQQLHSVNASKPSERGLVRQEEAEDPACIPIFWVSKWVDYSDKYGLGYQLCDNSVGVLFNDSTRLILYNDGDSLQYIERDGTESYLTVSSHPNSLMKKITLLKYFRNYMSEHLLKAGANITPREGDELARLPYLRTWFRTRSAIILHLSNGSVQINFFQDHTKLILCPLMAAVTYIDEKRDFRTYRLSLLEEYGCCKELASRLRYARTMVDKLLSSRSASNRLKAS

[14] = target: polo-box domain (PBD) of polo-like kinase 1 (PLK1) (UniProt P53350); assay: from FP IC50s; PLK1 PBD against PLK3 PBD
[15] = target: polo-box domain (PBD) of polo-like kinase 1 (PLK1) (UniProt P53350); assay: fluorescence polarization competition, displacement of tracer peptide from PLK1 PBD
[16] = target: polo-box domain (PBD) of polo-like kinase 3 (PLK3) (UniProt Q9H4B4); assay: fluorescence polarization competition, displacement of tracer peptide from PLK3 PBD
[17] = target: T2, polo-box domain (PBD) of polo-like kinase 3 (PLK3) (UniProt Q9H4B4 335-646, limits assumed); assay: fluorescence polarization titration of tracer with PLK3 PBD
T2 construct: domain: polo-box domain (PBD); also called PLK3 PBD; PBD of PLK3
T2 sequence (looked up): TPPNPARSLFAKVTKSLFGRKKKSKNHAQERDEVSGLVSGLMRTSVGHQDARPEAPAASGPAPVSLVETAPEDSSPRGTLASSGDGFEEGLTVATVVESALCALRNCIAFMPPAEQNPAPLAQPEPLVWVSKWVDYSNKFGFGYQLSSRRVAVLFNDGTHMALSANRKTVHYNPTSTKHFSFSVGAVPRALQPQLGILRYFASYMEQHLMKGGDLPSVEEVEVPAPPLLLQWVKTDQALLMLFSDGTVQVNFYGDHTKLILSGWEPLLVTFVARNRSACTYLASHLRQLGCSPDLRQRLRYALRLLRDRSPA
Protocol: as §2, with “IC₅₀” for “IC50”
as §4

[18] = target: T2, polo-box domain (PBD) of polo-like …; assay: fluorescence polarization competition, displacement of tracer peptide from PLK3 PBD
Protocol: as §2, with “IC₅₀” for “IC50”
as §4, §3

[19] = target: T3, polo-box domain (PBD) of polo-like kinase 1 (PLK1) (UniProt P53350 367-603, limits assumed); assay: fluorescence polarization competition, displacement of tracer peptide from PLK1 PBD
T3 construct: domain: polo-box domain (PBD); the background speaks of the four known human PLKs and the residue numbers (L491) fit human PLK1; also called PLK1 PBD; PBD of PLK1
T3 sequence (P53350 367-603 limits assumed): as the sequence (P53350 367-603 limits assumed) above
Description: as §2, with “IC₅₀” for “IC50”

[20] = target: T3, polo-box domain (PBD) of polo-like …; assay: fluorescence polarization competition on PLK1 PBD

CCCCCCCCc1ccc(C(=O)N[C@@H](CO)C(=O)N[C@H](C(=O)N[C@@H](C)C(=O)N[C@H](C(=O)O)[C@@H](C)CC)[C@@H](C)OP(=O)(O)O)cc1 [Compound 15] ({Benzoyl(4-octyl)}-S[pT]AI-OH; C-terminus assumed)
IC50 [1]: 128 µM
IC50 [2]: 55.7 µM
IC50 [3]: 79.5 µM
sensitivity of RPE cells to FLIPs, in words [4]: sensitive

CCCCCCCCCc1ccc(C(=O)N[C@@H](CO)C(=O)N[C@H](C(=O)N[C@@H](C)C(=O)N[C@H](C(N)=O)[C@@H](C)CC)[C@@H](C)OP(=O)(O)O)cc1 [Compound 18] (X1-S[pT]AI-NH2; N-terminus assumed)
BubR1 phosphorylation (anti-BubR1 immunoblot) [5]: inhibited the BubR1 phosphorylation
mitotic block (anti-pHH3 immunoblot) [5]: blocked the cells at mitosis

GPLATS[pT]PNGL (SEQ ID NO: 8)
fold reduction of affinity against the PLK3 consensus peptide (SEQ ID NO: 7) [6]: 2 fold
fold reduction of affinity against the PLK3 consensus peptide (SEQ ID NO: 7) [7]: 3 fold
Selectivity Index [8]: 2860

CCCCCCCCc1ccc(C(=O)N[C@@H](CO)C(=O)N[C@H](C(=O)N2CCC[C@H]2C(=O)N[C@@H](CC(C)C)C(=O)O)[C@@H](C)OP(=O)(O)O)cc1 [Compound 16] ({Benzoyl(4-octyl)}-S[pT]PL-OH; C-terminus assumed)
fold reduction of PLK1 PBD binding relative to parent compound [9]: 3-4 fold
fold reduction of PLK3 PBD binding relative to parent compound [10]: 3-4 fold
IC50 ([10]; competition with fluorescent tracer peptide, read-out: PLK3 PBD FP IC50): 620 ± 72.5 µM
accumulation in G2/M [11]: 53%
IC50 [12]: 158 µM
IC50 ([4]; C67V mutant PLK1, read-out: growth inhibition, RPE cells expressing PLK1 C67V mutant): 86.8 µM
sensitivity of RPE cells to FLIPs, in words [4]: sensitive

{Benzoyl(4-octyl)}-S[pT]AI [Compound No. 15, 4-octylbenzamide N-capped S[pT]AI (SEQ ID NO: 13)]
MTT IC50 [µM] A549 [13]: 79.5 µM
MTT IC50 [µM] HeLa [13]: 128 µM
MTT IC50 [µM] PC-3 [13]: 55.7 µM
Selectivity Index [14]: 1860
IC50 [15]: 0.41 µM
IC50 [16]: 153 µM

B1: PLK3 binding tracer (fluorescein-labelled SEQ ID NO: 7) (peptide)
peptide: GPLATS[pT]PKNG
modifications: also: fluorescein-labelled, site not given here
notes: also called PLK3 tracer; fluorescein-labelled tracer for the PLK3 PBD
Kd [17]: 0.0272 µM

LLCS[pT]PNGL (also called native Cdc25C peptide) [Cdc25C PBD substrate peptide LLCS[pT]PNGL (SEQ ID NO: 1)]
Selectivity Index [8]: > 17000
IC50 [15]: 0.17 µM
IC50 [18]: > 600 µM

{4‑(methylamino)benzoyl}-S[pT]PNGL (also: further groups not given here, see m14; also called Compound No. 8) [Compound #8, methylamino FLIP (R1 = NCH3)]
IC50 [19]: 11.2 µM

B2: Compound No. 17, 4-octyl S[pT]AI (SEQ ID NO: 13), R1 group on the C-terminal (peptide)
peptide: S[pT]AI
modifications: also: 4-octyl R1 group on C-terminus, 'C-terminal amidated octyl', terminal chemistry unclear
MTT IC50 [µM] HeLa [13]: 38.9 µM
MTT IC50 [µM] PC-3 [13]: 41.5 µM
Selectivity Index [14]: 79
IC50 [15]: 1.49 µM
IC50 [16]: 117 µM

{Benzoyl(4-octyl)}-S[pT]PL [Compound No. 16, 4-octyl S[pT]PL (SEQ ID NO: 14)]
MTT IC50 [µM] A549 [13]: 160 µM
MTT IC50 [µM] HeLa [13]: 142 µM
MTT IC50 [µM] PC-3 [13]: 103 µM
Selectivity Index [14]: 2580
fold weaker affinity against Compound No. 15 [6]: 3 to 4 fold
fold weaker affinity against Compound No. 15 [7]: 3 to 4 fold
IC50 [15]: 1.2 µM

{4‑(propylamino)benzoyl}-S[pT]PNGL (also: further groups not given here, see m14; also called Compound No. 9) [Compound #9, propylamino FLIP (R1 = NCH2CH2CH3)]
fold increase of activity against Compound #8 [20]: > 2 fold
IC50 [19]: 5.4 µM

B3: Compound No. 18, 4-nonyl S[pT]AI (SEQ ID NO: 13), R1 group on the C-terminal (peptide)
peptide: S[pT]AI
modifications: also: 4-nonyl R1 group on C-terminus, 'C-terminal amidated nonyl', terminal chemistry unclear
MTT IC50 [µM] HeLa [13]: 38.2 µM
MTT IC50 [µM] PC-3 [13]: 27 µM
Selectivity Index [14]: 78
IC50 [15]: 1.23 µM
IC50 [16]: 95.9 µM
